Positions count from the first letter of the chain named. Names may count otherwise.
B1: 3A6-IgG1-SI (antibody, V domains shown)
VH: QVQLQESGPGMVKPSETLSLTCTVSGGSISYNYWSWIRQPPGKGLEWIGYIYHSGTTKYNPSLKSRVTMSVDTSKNHFSLKLNSVTAADTAVYYCARHEDYWFFDLWGRGTLVTVSS
VL: DIQMTQSPSSLSASVGDRVTITCRASQGISNYLVWFQQKPGKAPKSLIYAASILQSGVPSKFSGSGSGTDFTLTINSLQPEDFATYYCQQYNTYPFTFGPGTKVDIK
notes: VH and VL joined to IgG1 constant regions with SI mutations (S239D and I332E, EU numbering) in the Fc
B2: ESK1 analog (antibody, V domains shown)
VH: QMQLVQSGAEVKEPGESLRISCKGSGYSFTNFWISWVRQMPGKGLEWMGRVDPGYSYSTYSPSFQGHVTISADKSTSTAYLQWNSLKASDTAMYYCARVQYSGYYDWFDPWGQGTLVTVSS
VL: not shown
notes: Fully human TCR-like monoclonal IgG1 antibody
B3: 4F10-IgG1-SI (antibody, V domains shown)
VH: QVQLQESGPGLVKPSETLSLTCTVSGGSISNYYWSWIRQPPGKGLEWIGYIYYSGSTNYNPSLKSRVNISVDTSKSQVSLKLNSVIAADTAVYYCARHEDYWYFDLWGRGTLVTVSS
VL: DIQLTQSPSSLSASIRDRVTITCRASQDINNYLAWFQQKPGKAPKSLIYAVSSLESGVPSKFSGSGSGTDFTLTISSLQPEDFATYFCQQYNSYPFTFGPGTKVEIK
notes: as for B1
B4: 3E6-IgG1-SI (antibody, V domains shown)
VH: EVQLVESGGGVVRPGGSLRLSCAASGFTFDDSGMSWVRQGPGKGLEWVSGINWNGGSTGYADSVKGRFTISRDNAKNSLYLQMNSLRAEDTALYYCARDPGIAVAGPYYYYYYGMDVWGQGTTVTVSS
VL: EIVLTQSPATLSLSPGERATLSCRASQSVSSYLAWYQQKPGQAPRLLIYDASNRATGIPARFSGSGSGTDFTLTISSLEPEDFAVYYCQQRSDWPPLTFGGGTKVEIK
notes: as for B1
B5: 7B9-IgG1-SI (antibody, V domains shown)
VH: EVQLVESGGGVVQPGGSLRLSCAASGFTFDDYAMHWVRQAPGKGLEWVSLISGDDGSTYYADSMKGRITISRDNSKNSLYLQMNSLRTEDTAMYYCAKASYGSGSYLYNYGMDVWGQGTTVTVFS
VL: DIQLTQSPSSLSASVGDRVTITCQASQDIINYLNWYQQKPGKAPKLLIYDTSNLETGVPSRFSGSGSGTDFAFTINSLQPEDIATYYCQQFVNLPLTFGGGTKVEIK
notes: VH and VL joined to IgG1 constant regions with SI mutations (S239D and I332E, EU numbering) in the Fc; also called 7B9-IgGI-SI
B6: P01218-IgG1-SI (antibody, V domains shown)
VH: EVQLVESGGGVVQPGRSLRLSCAASGFTFSSYAMHWVRQAPGKGLEWVAVISYDGSNKYYADSVKGRFTISRDNSKNTLYLQMNSLRAEDTAVYYCARAPYYGSGSYYNSYYYYHGMDVWGQGTTVTVSS
VL: AIWMTQSPSSLSASVGDRVTITCQASQDISNYLNWYQQKPGKAPNLLIYDASNLETGVPSRFSGSGSGTDFTLTISSLQPEDIATYYCQQYDNLPLTFGGGTKVEIK
notes: VH and VL joined to IgG1 constant regions with SI mutations (S239D and I332E, EU numbering) in the Fc; also called P01218-IgGI-SI
B7: 1G7-IgG1-SI (antibody, V domains shown)
VH: QVQLVESGGGVVRPGGSLRLSCTASGFTFDDYGMTWVRQAPGKGLEWVSGINWNGGSTGYADSVKGRFTISRDNAKNSLFLQMNSLRAEDTALYYCARDQGIAVVGTHYYYYYGMDVWGQGTAVTVSS
VL: EIVLTQSPATLSLSPGERATLSCRASQSFSSYLAWYQQKPGQAPRLLIFDTSNRATGIPARFSGSGSGTDFTLTISSLEPEDFAVYYCQQRSNWPLTFGGGTKVEIK
notes: as for B1
B8: 1E9-IgG1-SI (antibody, V domains shown)
VH: EVQMVESGGDVVRPGGSLRLSCAASGFMFDDYGMSWVRHVQGKGLEWVSGIDWNGDSTGYADSVKGRFTISRDNAKNSLYLQMNSLRAEDTALYYCARDQGIAVAGPYNYYYGMDVWGQGTTVTVSS
VL: B7 VL with F29V, Q38E, T51A, L96F, G100P, K103R
notes: VH and VL joined to IgG1 constant regions with SI mutations (S239D and I332E, EU numbering) in the Fc; also called 1E9-IgGI-SI
B9: P01264-IgG1-SI (antibody, V domains shown)
VH: EVQLVESGGGLVKPGGSLRLSCAASGFTFSNAWMNWVRQAPGKGLEWVGRIKSKTDGGTTDYAAPVKGRFTISRHDSKNTLYLQMNSLKTEDTAVYYCATDPRIAVTGTDYYYGMDVWGQGTTVTVSS
VL: DIVMTQTPSFLSASVGDRVTITCRASQDISNYLNWYQQKPGKAPKLLIYDASNLETGVPSRFSGSGSGTDFTFTISSLQPEDIATYYCQQYDNLPITFGQGTRLEIK
notes: as for B1
B10: P01199-IgG1-SI (antibody, V domains shown)
VH: B9 VH with E1Q, A40T, T60K, H75D, K89N, A99S
VL: not shown
notes: as for B1

The binders below were run against WT1RMF/HLA-A2 complex on cells (human) (assay: flow cytometry, T2 cells pulsed with 50 µM WT1RMF, antibody titrated 0.00096-45 nM, MFI curve).

| EC50 | Binder |
| --- | --- |
| 2.26 nM | B1 |
| 4.04 nM | B2 |
| 0.42 nM | B3 |
| 2.02 nM | B4 |
| 0.553 nM | B5 |
| 3.48 nM | B6 |
| 0.337 nM | B7 |
| 0.798 nM | B8 |
| 0.896 nM | B9 |

The binders below were run against WT1RMF/HLA-A2 complex on cells (human) (assay: flow cytometry (MFI), T2 cells pulsed with 50 µM WT1RMF, antibody titrated).

| EC50 (read off the curve) | Binder |
| --- | --- |
| ~1 nM | B7 |

What follows are binders tested against WT1RMF/HLA-A2 complex on cells (human) (assay: flow cytometry, T2 cells pulsed with 25 µM WT1RMF, antibody 10 µg/mL).

| Percentage of Positive Cells (%) | Binder |
| --- | --- |
| 70.3% | B1 |
| 88.8% | B2 |
| 95.6% | B3 |
| 30.9% | B4 |
| 93% | B5 |
| 92.8% | B6 |
| 92.4% | B7 |
| 94.9% | B8 |
| 88.5% | B10 |
| 75.4% | B9 |

Each binder was assayed against His-tagged WT1RMF/HLA-A2 complex (human) (assay: SPR, Biacore 8K; antibody captured on Protein A chip, His-tagged complex as analyte; 1:1 Langmuir fit).

| Kd | koff | kon | Binder |
| --- | --- | --- | --- |
| 7100 nM | 0.0204 s⁻¹ | 2870 M⁻¹ s⁻¹ | B1 |
| 0.43 nM | 0.000664 s⁻¹ | 1.54e+06 M⁻¹ s⁻¹ | B3 |
| 30.3 nM | 0.00451 s⁻¹ | 149000 M⁻¹ s⁻¹ | B4 |
| 15.3 nM | 0.00185 s⁻¹ | 121000 M⁻¹ s⁻¹ | B5 |
| 16.1 nM | 0.000902 s⁻¹ | 56200 M⁻¹ s⁻¹ | B6 |
| 9.49 nM | 0.00151 s⁻¹ | 159000 M⁻¹ s⁻¹ | B7 |
| 22.4 nM | 0.00164 s⁻¹ | 73100 M⁻¹ s⁻¹ | B8 |
| 67.4 nM | 0.00987 s⁻¹ | 147000 M⁻¹ s⁻¹ | B10 |
| 121 nM | 0.0177 s⁻¹ | 146000 M⁻¹ s⁻¹ | B9 |
